Measured values from patent US10441541B2, “Methods and compositions for treating osteoarthritis and promoting cartilage formation” (New York University, priority 2015, dated 2019).

Experiments:
[1] = test system: neonatal murine chondrocytes; test: Aggrecan expression in cultured chondrocytes, Alcian Blue staining; assay type: cell-based; details: 1 μM
Source text: (Gosset et al., Nat Protoc 2008; 3:1253-1260). […] Following digital quantitation of alcian-blue stained aggrecan in the tissue wells, aggrecan levels are expressed as % control (±SEM) as provided in FIG. 4B.

A3 adenosine receptor = target: T1, A3 adenosine receptor (Homo sapiens, UniProt P0DMS8); details: cited from earlier work
T1 sequence (P0DMS8 1-318): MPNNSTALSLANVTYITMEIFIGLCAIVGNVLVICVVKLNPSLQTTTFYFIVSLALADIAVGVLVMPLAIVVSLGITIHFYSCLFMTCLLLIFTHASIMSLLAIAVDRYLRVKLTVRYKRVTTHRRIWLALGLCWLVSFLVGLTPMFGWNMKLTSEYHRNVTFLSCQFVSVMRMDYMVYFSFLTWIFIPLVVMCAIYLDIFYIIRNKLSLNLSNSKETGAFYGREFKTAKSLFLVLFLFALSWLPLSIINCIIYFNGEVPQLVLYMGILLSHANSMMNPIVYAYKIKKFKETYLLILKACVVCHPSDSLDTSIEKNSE

[2] = test system: primary murine chondrocytes; test: ATP and adenosine content and release of primary chondrocytes after IL-1β; assay type: cell-based, mouse; details: 5 ng/ml for 24 hours
Experimental: (§1) Articular chondrocytes were obtained from C57BL/6 WT or A2AKO newborn mice following a protocol previously described (Thirion et al., Methods in Molecular Medicine 2004; 100:1-14), Primary chondrocytes (80% confluence) were starved for 5h. Cells were treated for 24h with mouse recombinant IL-1β (5 ng/ml) in DMEM containing 10% FBS and 1% Penicillin-Steptomycin. For intracellular ATP assay, cells were collected and lysed with RIPA buffer containing proteases and phosphatase inhibitors. […] ATP was assayed using a bioluminescent ATP determination kit following the manufacturer's instructions. Adenosine was extracted and tested by HPLC as previously described. ATP and adenosine data were normalized following protein quantification.

[3] = test system: rat tibial plateau explants; test: Adenosine release from tibial plateau explants, with and without mechanical loading; assay type: cell-based
Experimental: 14 to 19 week old male Sprague-Dawly rats were sacrificed and their tibias were harvested. The soft tissue was removed from the bone and the proximal tibia was cut in the growth plate region by using a Low Speed Diamond Wheel Saw-Model 650 (South Bay Technologies, CA, USA). Tibia surface was cut separating the medial and the lateral condyle. Samples were incubated in media containing DMEM-F12, FBS 10%, 100 ug/ml of ascorbic acid, 2 mM of […], 1% of Penicillin, Streptomycin and amphotericin. The explants were incubated with or without IL-1β (5 ng/ml) for 24 hours. After incubation the samples were placed in a glass plate in new media without FBS. The loading was programmed using the block waveform feature in Wintest 7 software of BOSE Electroforce 3200 system (Bose Inc., MN, USA). The specimens were preloaded with uniaxial compressive load that was applied at 0.005 mm/s loading rate under displacement control up to 0.01 mm. Samples undergo cyclic load at 2 Hz for 1800 cycles at 1.5N compressive load under load control. Dwell for 2700s immediately after the end of 1800th cycle. Media samples were collected after 1, 10 and 15 minutes during loading and 15 and 30 minutes after loading. Samples collected for ATP assay were stored immediately on ice.

murine chondrocytes = test: Expression of adenosine-related enzymes and transporters in chondrocytes (RT-PCR, western blot, immunofluorescence); assay type: cell-based, mouse
Experimental: as §1
After cell treatments, the total protein extracts were collected and stored at −80° C. Total protein fractions were quantified using the BCA kit (Thermo Scientific). Western blotting was performed by electrophoresing […] protein through a 10% polyacrylamide gel followed by transfer of proteins to nitrocellulose membranes. […] Membranes were scanned with Li-cor Odyssey equipment and the intensities of the protein bands were quantified by densitometric analysis using Image Studio 2.0 38 software. […]

CCNC(=O)[C@H]1O[C@@H](n2cnc3c(N)nc(NCCc4ccc(CCC(=O)O)cc4)nc32)[C@H](O)[C@@H]1O [CGS21680]
aggrecan expression ([1]; Alcian Blue staining of cultured chondrocyte matrix, preliminary experiments): nearly two-fold increase | amount of alcian blue-stained material in wells ([1]; in the absence or presence of IL-1): greatest amount of alcian blue-stained material

Nc1ncnc2c1ncn2[C@@H]1O[C@H](CO)[C@@H](O)[C@H]1O [adenosine]
affinity for adenosine (A3 adenosine receptor): low-micromolar range

B1: IL-1β: Mouse and rat recombinant Il-1β from R&D Systems, inflammatory stimulus (protein, UniProt P10749 118-269, looked up)
Interleukin-1 beta: VPIRQLHYRLRDEQQKSLVLSDPYELKALHLNGQNINQQVIFSMSFVQGEPSNDKIPVALGLKGKNLYLSCVMKDGTPTLQLESVDPKQYPKKKMEKRFVFNKIEVKSKVEFESAEFPNWYISTSQAEHKPVFLGNNSGQDIIDFTMESVSS
modifications: rat protein also used
notes: Mouse and rat recombinant Il-1β from R&D Systems, inflammatory stimulus
ATP released into the supernates [2]: 66±3 % of control | adenosine concentration in the supernates [2]: 65 % of control | intracellular ATP [2]: 61±9 % of control | adenosine concentration in the supernates ([2]; n=9, control 143±14 nM): 94 ± 14 nM | adenosine release from cartilage explants ([3]; explants without loading): reduced adenosine release | adenosine release after weight loading ([3]; pre-treatment 5 ng/ml for 24 hours, loading within physiologic range, n=5, without pre-treatment 1657±177 nM): 960 ± 57 nM | message of ENTPD1, NT5E, PANX1, SLC29A1, SLC29A2 and ANKH (murine chondrocytes; 5 ng/ml for 24 hours, RT-PCR, n=4): significantly decrease message | NT5E protein expression and localization on chondrocyte surface (murine chondrocytes; 5 ng/ml, western blot and immunofluorescence): decreased NTSE protein expression and its localization on chondrocyte surface
